Reference: patent publication US20050124539A1 (Takeda / Millennium, published 2005)
No end group written: not given here. *: point of attachment. 125I = [125I]*

T1: Human GPR7 (human, UniProt P48145 1-328)
T1 sequence: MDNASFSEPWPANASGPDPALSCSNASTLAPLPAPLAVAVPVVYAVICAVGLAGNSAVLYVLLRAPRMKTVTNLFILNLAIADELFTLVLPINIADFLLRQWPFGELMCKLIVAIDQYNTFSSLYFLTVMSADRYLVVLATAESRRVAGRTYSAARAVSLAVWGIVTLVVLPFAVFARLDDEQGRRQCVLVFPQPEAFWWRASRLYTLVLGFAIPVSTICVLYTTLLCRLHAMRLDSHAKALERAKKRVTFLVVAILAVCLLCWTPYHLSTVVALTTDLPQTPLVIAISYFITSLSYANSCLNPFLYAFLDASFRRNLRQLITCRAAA

T2: TGR26, rat-derived G protein-coupled receptor protein (rat, UniProt Q56UD9 1-329)
T2 construct: Expressed in CHO dhfr- cells from pAK-rGPR7; also called rat TGR26; TGR26 receptor
T2 sequence: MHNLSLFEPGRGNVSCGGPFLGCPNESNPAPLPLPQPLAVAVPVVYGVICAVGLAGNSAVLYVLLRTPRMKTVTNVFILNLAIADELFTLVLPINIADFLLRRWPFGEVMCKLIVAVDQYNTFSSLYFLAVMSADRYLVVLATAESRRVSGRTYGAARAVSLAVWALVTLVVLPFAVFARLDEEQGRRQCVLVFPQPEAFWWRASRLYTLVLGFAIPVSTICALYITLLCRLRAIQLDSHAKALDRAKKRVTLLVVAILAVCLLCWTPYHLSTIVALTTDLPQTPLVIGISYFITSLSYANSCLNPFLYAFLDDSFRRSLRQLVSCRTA

B1: porcine GPR8 ligand (1-23) (peptide)
peptide: WYKHTASPRYHTVGRAAGLLMGL
notes: also called pGPR8L(1-23); porcine homologue of GPR8 ligand peptide
B2: Fmoc-added Human GPR8L (1-23) (peptide)
peptide: XYKHVASPRYHTVGRAAGLLMGL
modifications: N-terminal Fmoc (N-9-fluorenylmethoxycarbonyl) on Trp 1
notes: also called Fmoc-hGPR8L(1-23); Human GPR8 ligand (1-23) modified by Fmoc

Molecular target: T3, Human GPR8 receptor protein (human, UniProt P48146 1-333)
T3 sequence (P48146 whole entry): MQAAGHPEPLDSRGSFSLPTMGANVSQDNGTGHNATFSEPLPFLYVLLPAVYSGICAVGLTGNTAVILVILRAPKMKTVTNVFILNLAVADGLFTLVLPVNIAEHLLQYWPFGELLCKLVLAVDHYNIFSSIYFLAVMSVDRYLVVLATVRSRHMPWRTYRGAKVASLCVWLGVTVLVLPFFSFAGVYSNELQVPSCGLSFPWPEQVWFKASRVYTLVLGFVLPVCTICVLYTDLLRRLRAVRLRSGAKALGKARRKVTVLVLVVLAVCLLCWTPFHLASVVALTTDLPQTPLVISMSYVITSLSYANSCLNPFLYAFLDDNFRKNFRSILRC
Assay: cell-based or functional assay

Point of comparison: XYKHVASPRYHTVGRAAGLLMGL (N-alpha-acetyl on Trp 1, also called Ac-hGPR8L(1-23)) [[N^α-Acetyl-Trp^1]-Human GPR8 ligand (1-23)], “Promoting activity to GTPγS binding (EC50 nM)” value 14 nM. Against it:
- WYKHVASPRYHTVGRAAGL (also called hGPR8L(1-19)) [Human GPR8 ligand (1-19)] — 71-fold higher, 1000 nM
- WYKHVASPRYHTVGRAAG (also called hGPR8L(1-18)) [Human GPR8 ligand (1-18)] — higher, > 10000 nM
- B1 — 9.3-fold lower, 1.5 nM
- WYKHVASPRYHTVGRAAGLLXGL (methionine sulfoxide, Met(O), at position 21, also called [MET(O)]-hGPR8L(1-23)) [Human GPR8 ligand (1-23) oxidant] — 10-fold lower, 1.4 nM
- B2 — 17-fold higher, 240 nM

Molecular target: T1, Human GPR7
Assay: cell-based or functional assay

Point of comparison: XYKHVASPRYHTVGRAAGLLMGL (N-alpha-acetyl on Trp 1, also called Ac-hGPR8L(1-23)) [[N^α-Acetyl-Trp^1]-Human GPR8 ligand (1-23)], “Promoting activity to GTPγS binding (EC50 nM)” value 1.5 nM. Against it:
- WYKHVASPRYHTVGRAAGL (also called hGPR8L(1-19)) [Human GPR8 ligand (1-19)] — 56-fold higher, 84 nM
- WYKHVASPRYHTVGRAAG (also called hGPR8L(1-18)) [Human GPR8 ligand (1-18)] — 4100-fold higher, 6200 nM
- B1 — 4.3-fold lower, 0.35 nM
- WYKHVASPRYHTVGRAAGLLXGL (methionine sulfoxide, Met(O), at position 21, also called [MET(O)]-hGPR8L(1-23)) [Human GPR8 ligand (1-23) oxidant] — within 1.5-fold, 1.6 nM
- B2 — 4.4-fold higher, 6.6 nM

Molecular target: T2, TGR26, rat-derived G protein-coupled …
Assay: radioligand filter binding, membrane fraction of TGR26 expressing CHO cells
Method: Cell membrane fraction prepared from TGR26 expressing cells was diluted to various concentration with assay buffer (25 mM Tris-HCl, 5 mM EDTA, 0.05% CHAPS (3-[(3-Cholamidopropyl) Dimethyl-Ammonio]-1-Propanesulfonate), 0.1% BSA, 0.5 mM PMSF, 1 μg/ml Pepstatin, 20 μg/ml Leupeptin, 4 μg/ml E-64, pH7.4), and 200 μl each of the diluent was dispensed into polypropilene test tube (Falcon 2053). In order to determine an amount of maximum binding, 2 μl of DMSO and 2 μl of 7 nM [¹²⁵-Tyr¹⁰]-hGPR8L(1-23) were added to the membrane fraction solution. Further, in order to determine a non-specific binding, 2 μl of 100 μM hGPR8L(1-23)/DMSO solution and 2 μl of 7 nM [¹²⁵I]-Tyr¹⁰]-hGPR8L(1-23) were added to the membrane fraction solution. The reaction was done at 25° C. for 75 minutes, and the reaction mixture was filtered by suction filtration using Whatman glassfilter (GF-F) treated with polyethyleneimine. In addition, the filter was washed twice with 1.5 ml of washing buffer (25 mM Tris-HCl, 5 mM EDTA, 0.05% CHAPS, 0.1% BSA, pH7.4). After filtration, a radioactivity remaining on the filter was counted using γ-counter, and an amount of specific binding was estimated by subtracting an amount of non-specific binding from an amount of maximum binding. […]

WYKHVASPRY(125I)HTVGRAAGLLMGL [[^125I-Tyr^10]-hGPR8L(1-23)]: binds.

Molecular target: T1, Human GPR7
Assay: radioligand filter binding, membrane fraction of Human GPR7 expressing CHO cells

WYKHVASPRY(125I)HTVGRAAGLLMGL [[^125I-Tyr^10]-hGPR8L(1-23)]: binds.

Molecular target: T3, Human GPR8 receptor protein
Assay: radioligand filter binding, membrane fraction of Human GPR8 expressing CHO cells
Method: Using [¹²⁵I]-labeled hGPR8L(1-23) prepared as described in Reference Example 42 and a cell membrane fraction prepared from Human GPR8 expressing cells by the similar manner as described in Reference Example 6, a receptor binding assay was carried out as follows.
Cell membrane fraction prepared from Human GPR8 expressing cells was diluted to various concentration with assay buffer (25 mM Tris-HCl, 5 mM EDTA, 0.05% CHAPS (3-[(3-Cholamidopropyl) Dimethyl-Ammonio]-1-Propanesulfonate), 0.1% BSA, 0.25 mM PMSF, 1 μg/ml Pepstatin, 20 μg/ml Leupeptin, pH7.4), and 200 μl each of the diluent was dispensed into polypropilene test tube (Falcon 2053). In order to determine an amount of maximum binding (TB), […] of DMSO and 2 μl of 7 nM [¹²⁵I-Tyr²]-hGPR8L(1-23) or [¹²⁵I-Tyr¹⁰]-hGPR8L(1-23) were added to the membrane fraction solution. Further, in order to determine a non-specific binding (NSB), 2 μt of 100 μM hGPR8L(1-23)/DMSO solution and 2 μl of 7 nM [¹²⁵I]-Tyr²]-hGPR8L(1-23) or [¹²⁵I-Tyr¹⁰]-hGPR8L(1-23) were added to the membrane fraction solution. […] After filtration, a radioactivity remaining on the filter was counted using γ-counter, and an amount of specific binding (SB) was estimated by subtracting an amount of non-specific binding from an amount of maximum binding. […]

WYKHVASPRY(125I)HTVGRAAGLLMGL [[^125I-Tyr^10]-hGPR8L(1-23)]: binds.
WY(125I)KHVASPRYHTVGRAAGLLMGL [[^125I-Tyr^2]-hGPR8L(1-23)]: binds.

Molecular target: T3, Human GPR8 receptor protein
Assay: competition with [125I-Tyr10]-hGPR8L(1-23), membrane fraction of GPR8 expressing CHO cells
Method: Cell membrane fraction prepared from Human GPR8 expressing cells was diluted to various concentration with assay buffer (25 mM Tris-HCl, 5 mM EDTA, 0.05% CHAPS (3-[(3-Cholamidopropyl) Dimethyl-Ammonio]-1-Propanesulfonate), 0.1% BSA, 0.25 mM PMSF, 1 μg/ml Pepstatin, 20 μg/ml Leupeptin, pH7.4), and 200 μl each of the diluent was dispensed into polypropilene test tube (Falcon 2053). In order to determine an amount of maximum binding (TB), […] of DMSO and 2 μl of 7 nM [¹²⁵I-Tyr²]-hGPR8L(1-23) or [¹²⁵I-Tyr¹⁰]-hGPR8L(1-23) were added to the membrane fraction solution. Further, in order to determine a non-specific binding (NSB), 2 μt of 100 μM hGPR8L(1-23)/DMSO solution and 2 μl of 7 nM [¹²⁵I]-Tyr²]-hGPR8L(1-23) or [¹²⁵I-Tyr¹⁰]-hGPR8L(1-23) were added to the membrane fraction solution. The reaction was done at 25° C. for 60 minutes, and the reaction mixture was filtered by suction filtration using Whatman glassfilter (GF-F) treated with polyethyleneimine. After filtration, a radioactivity remaining on the filter was counted using γ-counter, and an amount of specific binding (SB) was estimated by subtracting an amount of non-specific binding from an amount of maximum binding. Since the specific binding in the case where [¹²⁵I-Tyr¹⁰]-hGPR8L(1-23) was used, was twice as much as that in the case where [¹²⁵1-Tyr²]-hGPR8L(1-23) was used, in practice, [¹²⁵I-Tyr¹⁰]-hGPR8L(1-23) was used in the assay. When the concentration of membrane fraction was changed, a specific binding of [¹²⁵I-Tyr¹⁰]-hGPR8L(1-23) was perceived depending on the concentration of membrane fraction.
A receptor binding activity of human- and porcine-homologue derivatives of GPR8 ligand peptide, wherein the synthesis method has been described in the specification, was measured using a membrane fraction of GPR8 expressing CHO cells and [¹²⁵-Tyr¹⁰]-hGPR8L(1-23) by the method described in Reference Example 43.

Point of comparison: XYKHVASPRYHTVGRAAGLLMGL (N-alpha-acetyl on Trp 1, also called Ac-hGPR8L(1-23)) [[N^α-Acetyl-Trp^1]-Human GPR8 ligand (1-23)], IC50 2.4 nM. Against it:
- WYKHVASPRYHTVGRAAGL (also called hGPR8L(1-19)) [Human GPR8 ligand (1-19)] — 42-fold higher, 100 nM
- WYKHVASPRYHTVGRAAG (also called hGPR8L(1-18)) [Human GPR8 ligand (1-18)] — 1100-fold higher, 2700 nM
- B1 — 6.3-fold lower, 0.38 nM
- WYKHVASPRYHTVGRAAGLLXGL (methionine sulfoxide, Met(O), at position 21, also called [MET(O)]-hGPR8L(1-23)) [Human GPR8 ligand (1-23) oxidant] — 7.7-fold lower, 0.31 nM
- B2 — 12-fold lower, 0.2 nM

Molecular target: T1, Human GPR7
Assay: competition with [125I-Tyr10]-hGPR8L(1-23), membrane fraction of GPR7 expressing CHO cells

Point of comparison: B2, IC50 0.14 nM. Against it:
- WYKHVASPRYHTVGRAAGL (also called hGPR8L(1-19)) [Human GPR8 ligand (1-19)] — 12-fold higher, 1.7 nM
- WYKHVASPRYHTVGRAAG (also called hGPR8L(1-18)) [Human GPR8 ligand (1-18)] — 17000-fold higher, 2400 nM
- B1 — 2.1-fold lower, 0.066 nM
- WYKHVASPRYHTVGRAAGLLXGL (methionine sulfoxide, Met(O), at position 21, also called [MET(O)]-hGPR8L(1-23)) [Human GPR8 ligand (1-23) oxidant] — within 1.5-fold, 0.17 nM
- XYKHVASPRYHTVGRAAGLLMGL (N-alpha-acetyl on Trp 1, also called Ac-hGPR8L(1-23)) [[N^α-Acetyl-Trp^1]-Human GPR8 ligand (1-23)] — 1.8-fold lower, 0.077 nM

Molecular target: T2, TGR26, rat-derived G protein-coupled …
Assay: competition with [125I-Tyr10]-hGPR8L(1-23), membrane fraction of TGR26 expressing CHO cells
Method: Cell membrane fraction prepared from TGR26 expressing cells was diluted to various concentration with assay buffer (25 mM Tris-HCl, 5 mM EDTA, 0.05% CHAPS (3-[(3-Cholamidopropyl) Dimethyl-Ammonio]-1-Propanesulfonate), 0.1% BSA, 0.5 mM PMSF, 1 μg/ml Pepstatin, 20 μg/ml Leupeptin, 4 μg/ml E-64, pH7.4), and 200 μl each of the diluent was dispensed into polypropilene test tube (Falcon 2053). In order to determine an amount of maximum binding, 2 μl of DMSO and 2 μl of 7 nM [¹²⁵-Tyr¹⁰]-hGPR8L(1-23) were added to the membrane fraction solution. Further, in order to determine a non-specific binding, 2 μl of 100 μM hGPR8L(1-23)/DMSO solution and 2 μl of 7 nM [¹²⁵I]-Tyr¹⁰]-hGPR8L(1-23) were added to the membrane fraction solution. The reaction was done at 25° C. for 75 minutes, and the reaction mixture was filtered by suction filtration using Whatman glassfilter (GF-F) treated with polyethyleneimine. In addition, the filter was washed twice with 1.5 ml of washing buffer (25 mM Tris-HCl, 5 mM EDTA, 0.05% CHAPS, 0.1% BSA, pH7.4). After filtration, a radioactivity remaining on the filter was counted using γ-counter, and an amount of specific binding was estimated by subtracting an amount of non-specific binding from an amount of maximum binding.
A receptor binding activity of human- and porcine-homologue derivatives of GPR8 ligand peptide obtained in the reference examples was measured using a membrane fraction of TGR26 expressing CHO cells and [¹²⁵I-Tyr¹⁰]-hGPR8L(1-23) by the method described in Reference Example 73.

Point of comparison: B1, IC50 0.12 nM. Against it:
- WYKHVASPRYHTVGRAAGL (also called hGPR8L(1-19)) [Human GPR8 ligand (1-19)] — 82-fold higher, 9.9 nM
- WYKHVASPRYHTVGRAAG (also called hGPR8L(1-18)) [Human GPR8 ligand (1-18)] — 6300-fold higher, 760 nM
- WYKHVASPRYHTVGRAAGLLXGL (methionine sulfoxide, Met(O), at position 21, also called [MET(O)]-hGPR8L(1-23)) [Human GPR8 ligand (1-23) oxidant] — 2.4-fold higher, 0.29 nM
- B2 — 1.9-fold higher, 0.23 nM
- XYKHVASPRYHTVGRAAGLLMGL (N-alpha-acetyl on Trp 1, also called Ac-hGPR8L(1-23)) [[N^α-Acetyl-Trp^1]-Human GPR8 ligand (1-23)] — 2.3-fold higher, 0.27 nM
